Test results: article PMC6613617, “Human DNA polymerase delta requires an iron–sulfur cluster for high-fidelity DNA synthesis”

Tests used:
[1] = biological target: T1, POLD1-CS;POLD2;POLD3;POLD4;PCNA (Homo sapiens;Homo sapiens;Homo …, UniProt P28340;P49005;Q15054;Q9HCU8;P12004 1-1107;1-469;1-466;1-107;1-261, C1076S||||); assay: EMSA; copurified with PCNA; defect alleviated; EMSA: 20 mM Tris-HCl pH 8.0, 20 mM KCl, 1 mM EDTA, 0.5 mM TCEP, 20 nM probe, 10-80 nM Pol delta, 25 C 30 min; 7% native PAGE, 0.5x TBE; conditions: protein: recombinant;recombinant;recombinant;recombinant;recombinant; copies: 1;1;1;1;3; label: 5'-fluorescein (FAM) on strand 1; blunt; one unpaired A in strand 2 as printed
[2] = biological target: T2, POLD1-HY;POLD2;POLD3;POLD4 (Homo sapiens;Homo sapiens;Homo …, UniProt P28340;P49005;Q15054;Q9HCU8 1-1107;1-469;1-466;1-107, H1066Y|||); assay: EMSA; without PCNA; not impaired; EMSA: 20 mM Tris-HCl pH 8.0, 20 mM KCl, 1 mM EDTA, 0.5 mM TCEP, 20 nM probe, 10-80 nM Pol delta, 25 C 30 min; 7% native PAGE, 0.5x TBE; conditions: protein: recombinant;recombinant;recombinant;recombinant; copies: 1;1;1;1; label: 5'-fluorescein (FAM) on strand 1; blunt; one unpaired A in strand 2 as printed
T2 sequence (P28340 whole entry H1066Y, chain 1 of 4): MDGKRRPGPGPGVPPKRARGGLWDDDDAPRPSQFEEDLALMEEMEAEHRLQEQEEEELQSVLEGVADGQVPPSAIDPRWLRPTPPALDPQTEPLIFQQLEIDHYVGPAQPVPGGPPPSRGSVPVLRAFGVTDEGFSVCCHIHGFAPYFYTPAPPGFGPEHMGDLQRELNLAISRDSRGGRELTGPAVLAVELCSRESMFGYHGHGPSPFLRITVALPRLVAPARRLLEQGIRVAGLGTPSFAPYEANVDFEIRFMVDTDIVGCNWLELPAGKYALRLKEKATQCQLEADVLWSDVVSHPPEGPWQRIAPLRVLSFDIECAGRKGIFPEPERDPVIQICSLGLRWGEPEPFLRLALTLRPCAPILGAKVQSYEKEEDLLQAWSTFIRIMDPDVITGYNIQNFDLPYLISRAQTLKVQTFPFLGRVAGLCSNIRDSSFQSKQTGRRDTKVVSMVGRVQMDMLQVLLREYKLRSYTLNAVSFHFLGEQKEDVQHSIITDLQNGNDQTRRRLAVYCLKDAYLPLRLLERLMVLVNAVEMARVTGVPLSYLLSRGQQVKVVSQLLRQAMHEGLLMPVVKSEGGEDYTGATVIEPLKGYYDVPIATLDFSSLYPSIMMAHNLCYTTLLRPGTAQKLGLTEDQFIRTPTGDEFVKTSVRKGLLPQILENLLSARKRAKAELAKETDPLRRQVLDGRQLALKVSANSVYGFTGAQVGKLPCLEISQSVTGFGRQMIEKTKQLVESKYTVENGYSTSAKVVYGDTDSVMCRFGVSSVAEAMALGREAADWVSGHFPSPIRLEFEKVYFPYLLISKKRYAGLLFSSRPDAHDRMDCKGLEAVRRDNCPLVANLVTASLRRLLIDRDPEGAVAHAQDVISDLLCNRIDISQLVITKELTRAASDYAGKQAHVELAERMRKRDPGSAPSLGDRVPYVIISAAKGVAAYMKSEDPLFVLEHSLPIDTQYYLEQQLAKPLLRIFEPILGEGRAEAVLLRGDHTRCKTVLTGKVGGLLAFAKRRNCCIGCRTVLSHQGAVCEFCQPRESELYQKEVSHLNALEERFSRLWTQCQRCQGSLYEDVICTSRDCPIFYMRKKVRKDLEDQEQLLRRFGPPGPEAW
T2 sequence (P49005 whole entry, chain 2 of 4): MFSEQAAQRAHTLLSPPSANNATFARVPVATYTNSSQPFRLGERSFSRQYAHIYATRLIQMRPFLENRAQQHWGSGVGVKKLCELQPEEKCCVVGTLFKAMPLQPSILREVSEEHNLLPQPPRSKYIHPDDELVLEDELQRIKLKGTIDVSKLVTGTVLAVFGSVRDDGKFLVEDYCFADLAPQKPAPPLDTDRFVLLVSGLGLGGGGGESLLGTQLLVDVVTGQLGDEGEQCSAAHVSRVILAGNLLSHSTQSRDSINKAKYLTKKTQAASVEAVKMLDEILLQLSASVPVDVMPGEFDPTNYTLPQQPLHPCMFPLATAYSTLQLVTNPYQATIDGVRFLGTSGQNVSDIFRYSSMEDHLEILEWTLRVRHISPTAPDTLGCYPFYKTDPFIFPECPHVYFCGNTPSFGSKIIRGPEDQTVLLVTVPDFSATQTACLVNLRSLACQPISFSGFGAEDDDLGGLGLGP
T2 sequence (Q15054 whole entry, chain 3 of 4): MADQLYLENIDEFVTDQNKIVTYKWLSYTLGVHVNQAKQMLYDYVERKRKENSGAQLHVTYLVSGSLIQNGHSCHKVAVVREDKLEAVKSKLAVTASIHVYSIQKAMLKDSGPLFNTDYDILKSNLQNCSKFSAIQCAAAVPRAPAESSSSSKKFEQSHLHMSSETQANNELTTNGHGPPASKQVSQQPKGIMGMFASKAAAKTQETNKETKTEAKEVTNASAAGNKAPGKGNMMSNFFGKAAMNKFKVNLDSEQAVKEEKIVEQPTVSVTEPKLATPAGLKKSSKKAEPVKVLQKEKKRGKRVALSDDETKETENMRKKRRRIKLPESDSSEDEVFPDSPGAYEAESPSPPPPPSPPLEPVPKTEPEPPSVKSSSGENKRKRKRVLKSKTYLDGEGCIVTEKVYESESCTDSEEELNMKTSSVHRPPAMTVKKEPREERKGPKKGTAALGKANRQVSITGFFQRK
T2 sequence (Q9HCU8 whole entry, chain 4 of 4): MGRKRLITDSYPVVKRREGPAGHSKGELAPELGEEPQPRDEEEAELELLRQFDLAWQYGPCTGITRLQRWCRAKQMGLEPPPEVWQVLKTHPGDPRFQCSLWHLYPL

[3] = biological target: T3, POLD1-HW;POLD2;POLD3;POLD4 (Homo sapiens;Homo sapiens;Homo …, UniProt P28340;P49005;Q15054;Q9HCU8 1-1107;1-469;1-466;1-107, H1066W|||); assay: as above; conditions: protein: recombinant;recombinant;recombinant;recombinant; copies: 1;1;1;1; label: 5'-fluorescein (FAM) on strand 1; blunt; one unpaired A in strand 2 as printed
T3 sequence (P28340 whole entry H1066W, chain 1 of 4): as the sequence (P28340 whole entry H1066Y, chain 1 of 4) above, with Y1066W counted along it
T3 sequence (P49005 whole entry, chain 2 of 4): as the sequence (P49005 whole entry, chain 2 of 4) above
T3 sequence (Q15054 whole entry, chain 3 of 4): as the sequence (Q15054 whole entry, chain 3 of 4) above
T3 sequence (Q9HCU8 whole entry, chain 4 of 4): as the sequence (Q9HCU8 whole entry, chain 4 of 4) above

[4] = biological target: T4, POLD1-CS;POLD2;POLD3;POLD4 (Homo sapiens;Homo sapiens;Homo …, UniProt P28340;P49005;Q15054;Q9HCU8 1-1107;1-469;1-466;1-107, C1076S|||); assay: EMSA; without PCNA; no defect; EMSA: 20 mM Tris-HCl pH 8.0, 20 mM KCl, 1 mM EDTA, 0.5 mM TCEP, 20 nM probe, 10-80 nM Pol delta, 25 C 30 min; 7% native PAGE, 0.5x TBE; conditions: protein: recombinant;recombinant;recombinant;recombinant; copies: 1;1;1;1; label: 5'-fluorescein (FAM); single strand
T4 sequence (P28340 whole entry C1076S, chain 1 of 4): as the sequence (P28340 whole entry H1066Y, chain 1 of 4) above, with Y1066H, C1076S counted along it
T4 sequence (P49005 whole entry, chain 2 of 4): as the sequence (P49005 whole entry, chain 2 of 4) above
T4 sequence (Q15054 whole entry, chain 3 of 4): as the sequence (Q15054 whole entry, chain 3 of 4) above
T4 sequence (Q9HCU8 whole entry, chain 4 of 4): as the sequence (Q9HCU8 whole entry, chain 4 of 4) above

[5] = biological target: T1, POLD1-CS;POLD2;POLD3;POLD4;PCNA; assay: EMSA; copurified with PCNA; no defect; EMSA: 20 mM Tris-HCl pH 8.0, 20 mM KCl, 1 mM EDTA, 0.5 mM TCEP, 20 nM probe, 10-80 nM Pol delta, 25 C 30 min; 7% native PAGE, 0.5x TBE; conditions: protein: recombinant;recombinant;recombinant;recombinant;recombinant; copies: 1;1;1;1;3; label: 5'-fluorescein (FAM); single strand
[6] = biological target: T4, POLD1-CS;POLD2;POLD3;POLD4; assay: EMSA; without PCNA; less second (super-shifted) band than WT; EMSA: 20 mM Tris-HCl pH 8.0, 20 mM KCl, 1 mM EDTA, 0.5 mM TCEP, 20 nM probe, 10-80 nM Pol delta, 25 C 30 min; 7% native PAGE, 0.5x TBE; conditions: protein: recombinant;recombinant;recombinant;recombinant; copies: 1;1;1;1; label: 5'-fluorescein (FAM) on strand 1; 5' overhang 16 nt on template strand 2; one unpaired A in strand 2 as printed
[7] = biological target: POLD1-HY;POLD2;POLD3;POLD4;PCNA (Homo sapiens;Homo sapiens;Homo …, UniProt P28340;P49005;Q15054;Q9HCU8;P12004 1-1107;1-469;1-466;1-107;1-261, H1066Y||||); assay: EMSA; copurified with PCNA; EMSA: 20 mM Tris-HCl pH 8.0, 20 mM KCl, 1 mM EDTA, 0.5 mM TCEP, 20 nM probe, 10-80 nM Pol delta, 25 C 30 min; 7% native PAGE, 0.5x TBE; conditions: protein: recombinant;recombinant;recombinant;recombinant;recombinant; copies: 1;1;1;1;3; label: 5'-fluorescein (FAM) on strand 1; 5' overhang 16 nt on template strand 2; one unpaired A in strand 2 as printed
[8] = biological target: POLD1-HW;POLD2;POLD3;POLD4;PCNA (Homo sapiens;Homo sapiens;Homo …, UniProt P28340;P49005;Q15054;Q9HCU8;P12004 1-1107;1-469;1-466;1-107;1-261, H1066W||||); assay: as above; conditions: protein: recombinant;recombinant;recombinant;recombinant;recombinant; copies: 1;1;1;1;3; label: 5'-fluorescein (FAM) on strand 1; 5' overhang 16 nt on template strand 2; one unpaired A in strand 2 as printed
[9] = biological target: POLD1 WT (catalytic subunit of Pol delta);POLD2;POLD3;POLD4;PCNA (Homo sapiens;Homo sapiens;Homo …, UniProt P28340;P49005;Q15054;Q9HCU8;P12004 1-1107;1-469;1-466;1-107;1-261, ||||); assay: as above; conditions: protein: recombinant;recombinant;recombinant;recombinant;recombinant; copies: 1;1;1;1;3; label: 5'-fluorescein (FAM) on strand 1; 5' overhang 16 nt on template strand 2; one unpaired A in strand 2 as printed
[10] = biological target: T1, POLD1-CS;POLD2;POLD3;POLD4;PCNA; assay: EMSA; copurified with PCNA; less second (super-shifted) band than WT; EMSA: 20 mM Tris-HCl pH 8.0, 20 mM KCl, 1 mM EDTA, 0.5 mM TCEP, 20 nM probe, 10-80 nM Pol delta, 25 C 30 min; 7% native PAGE, 0.5x TBE; conditions: protein: recombinant;recombinant;recombinant;recombinant;recombinant; copies: 1;1;1;1;3; label: 5'-fluorescein (FAM) on strand 1; 5' overhang 16 nt on template strand 2; one unpaired A in strand 2 as printed
[11] = biological target: T2, POLD1-HY;POLD2;POLD3;POLD4; assay: EMSA; without PCNA; EMSA: 20 mM Tris-HCl pH 8.0, 20 mM KCl, 1 mM EDTA, 0.5 mM TCEP, 20 nM probe, 10-80 nM Pol delta, 25 C 30 min; 7% native PAGE, 0.5x TBE; conditions: protein: recombinant;recombinant;recombinant;recombinant; copies: 1;1;1;1; label: 5'-fluorescein (FAM) on strand 1; 5' overhang 16 nt on template strand 2; one unpaired A in strand 2 as printed
[12] = biological target: T3, POLD1-HW;POLD2;POLD3;POLD4; assay: as above; conditions: protein: recombinant;recombinant;recombinant;recombinant; copies: 1;1;1;1; label: 5'-fluorescein (FAM) on strand 1; 5' overhang 16 nt on template strand 2; one unpaired A in strand 2 as printed
[13] = biological target: POLD1 WT (catalytic subunit of Pol delta);POLD2;POLD3;POLD4 (Homo sapiens;Homo sapiens;Homo …, UniProt P28340;P49005;Q15054;Q9HCU8 1-1107;1-469;1-466;1-107, |||); assay: as above; conditions: protein: recombinant;recombinant;recombinant;recombinant; copies: 1;1;1;1; label: 5'-fluorescein (FAM) on strand 1; 5' overhang 16 nt on template strand 2; one unpaired A in strand 2 as printed
Sequence of POLD1 WT (catalytic subunit of Pol delta);POLD2;POLD3;POLD4 (P28340 whole entry, stated change not applied, chain 1 of 4): as the sequence (P28340 whole entry H1066Y, chain 1 of 4) above, with Y1066H counted along it
Sequence of POLD1 WT (catalytic subunit of Pol delta);POLD2;POLD3;POLD4 (P49005 whole entry, stated change not applied, chain 2 of 4): as the sequence (P49005 whole entry, chain 2 of 4) above
Sequence of POLD1 WT (catalytic subunit of Pol delta);POLD2;POLD3;POLD4 (Q15054 whole entry, stated change not applied, chain 3 of 4): as the sequence (Q15054 whole entry, chain 3 of 4) above
Sequence of POLD1 WT (catalytic subunit of Pol delta);POLD2;POLD3;POLD4 (Q9HCU8 whole entry, stated change not applied, chain 4 of 4): as the sequence (Q9HCU8 whole entry, chain 4 of 4) above

Measured: binding result

B1: dsDNA probe (Fig 3C,D) (dsDNA)
DNA 1: GTTTCTTCAATCTTCATCATACAGGTCAG
DNA 2: CTGACCTGTATGATGAAGATTGAAAGAAAC
binds: [1] | [2] | [3]

GTTTCTTCAATCTTCATCATACAGGTCAG (ssDNA) [ssDNA probe (Fig 3E,F)]
binds: [4] | [5]

B2: primer-template (Fig 3A,B) (mixed)
DNA 1: GTTTCTTCAATCTTCATCATACAGGTCAG
DNA 2: CTCGTCAGCATCTCGTCTGACCTGTATGATGAAGATTGAAAGAAAC
binds: [6] | [7] | [8] | [9] | [10] | [11] | [12] | [13]
